These are literature values, as cited in PMC10974892.

For one data set, the target named is PhoE (Escherichia coli) (UniProt P02932).
The target in the next data set is OmpC (Escherichia coli) (UniProt P06996).
In data set [1] the target is intelectin-1 (hIntL-1) (Homo sapiens) (UniProt Q8WWA0).

pKd: −log10 of the molar value.

Chain of UniProt Q8WWA0 (Q8WWA0 19-298): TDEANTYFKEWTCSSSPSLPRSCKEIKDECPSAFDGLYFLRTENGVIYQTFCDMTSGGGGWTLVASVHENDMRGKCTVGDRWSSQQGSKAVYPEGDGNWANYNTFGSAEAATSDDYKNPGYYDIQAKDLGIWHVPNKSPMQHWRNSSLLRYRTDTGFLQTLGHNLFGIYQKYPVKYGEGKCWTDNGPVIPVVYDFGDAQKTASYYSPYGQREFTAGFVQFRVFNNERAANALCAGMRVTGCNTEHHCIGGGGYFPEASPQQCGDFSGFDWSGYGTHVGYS
Chain of UniProt P02932 (P02932 22-351): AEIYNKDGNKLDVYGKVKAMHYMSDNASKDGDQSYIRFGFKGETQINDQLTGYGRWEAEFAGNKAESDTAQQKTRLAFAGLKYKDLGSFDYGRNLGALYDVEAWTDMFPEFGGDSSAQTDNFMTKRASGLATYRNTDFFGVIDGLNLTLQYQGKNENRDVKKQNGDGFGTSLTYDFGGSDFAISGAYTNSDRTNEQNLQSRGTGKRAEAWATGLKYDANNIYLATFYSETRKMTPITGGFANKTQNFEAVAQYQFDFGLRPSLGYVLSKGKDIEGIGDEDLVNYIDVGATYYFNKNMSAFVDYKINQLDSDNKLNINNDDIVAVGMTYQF
Chain of UniProt P06996 (P06996 22-367): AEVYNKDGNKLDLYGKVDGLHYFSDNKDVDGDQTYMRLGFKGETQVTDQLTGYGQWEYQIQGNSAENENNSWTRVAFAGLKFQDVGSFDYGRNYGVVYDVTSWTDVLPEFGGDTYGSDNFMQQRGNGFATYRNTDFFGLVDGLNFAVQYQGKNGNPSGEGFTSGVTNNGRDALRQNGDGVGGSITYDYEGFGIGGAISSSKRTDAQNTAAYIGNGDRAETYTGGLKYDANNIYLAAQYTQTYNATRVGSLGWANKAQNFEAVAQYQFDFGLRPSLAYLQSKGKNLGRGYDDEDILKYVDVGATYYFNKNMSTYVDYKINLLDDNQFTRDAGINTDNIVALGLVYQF

lactoferrin (from UniProt P02788): the pKd with PhoE (Escherichia coli) was 6.99; with OmpC (Escherichia coli) it was 7.41; in data set [1] it was 6.30.
